Biological target: T1, N-terminally truncated tyrosine phosphorylated STAT1 (residues 136 to 750, N-terminally tagged with GB1) (UniProt P42224 136-750)
T1 sequence: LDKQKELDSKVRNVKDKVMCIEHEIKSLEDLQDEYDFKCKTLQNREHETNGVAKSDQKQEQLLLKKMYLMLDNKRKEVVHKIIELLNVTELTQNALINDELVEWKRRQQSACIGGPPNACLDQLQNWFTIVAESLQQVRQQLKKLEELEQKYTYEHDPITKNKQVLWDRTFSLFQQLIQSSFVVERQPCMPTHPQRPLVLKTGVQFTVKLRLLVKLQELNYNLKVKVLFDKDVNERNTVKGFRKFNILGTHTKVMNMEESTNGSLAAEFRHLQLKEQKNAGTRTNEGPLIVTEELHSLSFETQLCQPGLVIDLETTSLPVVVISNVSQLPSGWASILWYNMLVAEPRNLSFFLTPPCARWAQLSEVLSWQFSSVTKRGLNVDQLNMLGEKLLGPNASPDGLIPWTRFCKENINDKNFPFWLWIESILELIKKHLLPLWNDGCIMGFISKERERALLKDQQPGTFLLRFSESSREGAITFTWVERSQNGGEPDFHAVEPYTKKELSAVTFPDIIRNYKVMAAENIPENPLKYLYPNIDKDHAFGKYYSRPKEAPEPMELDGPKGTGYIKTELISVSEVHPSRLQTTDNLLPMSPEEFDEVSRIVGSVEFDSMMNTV
Experiment: ITC

B1: Rabies virus (strain Nishigahara) P3 protein (natural protein)
chain: MSRLHLDDGKLPDLGRMSKAGEGRHQEDFQMDEGEDPSLLFQSYLDNVGVQIVRQMRSGERFLKIWSQTVEEIISYVTVNFPNPSGRSSEDKSTQTTSQEPKKETTSTPSQRKSQSLKSRTMAQTASGPPSLEWSATNEEDDLSVEAEIAHQIAESFSKKYKFPSRSSGIFLYNFEQLKMNLDDIVKEAKNVPGVTRLAHDGSKLPLRCVLGWVALANSKKFQLLVEANKLNKIMQDDLNRYASC
B1 showed a Kd of 800 nM.

— paper PMC10083601 (Proceedings of the National Academy of Sciences of the …, 2023)
